# Test results reported in the Human Domainome abundance scans (Beltran et al. 2025).
# ± gives the uncertainty stated by the source.
# B1: POU domain, class 3, transcription factor 3, residues 320 to 388; numbered along this chain, P20264 (parent)
# chain: DDLEQFAKQFKQRRIKLGFTQADVGLALGTLYGNVFSQTTICRFEALQLSFKNMCKLKPLLNKWLEEAD
# Variants of: B1
# Test: abundance fitness (aPCA) (normalised: wild type 0, dead -1); higher = more abundant; growth selection in yeast, the domain comes from the species named
# Settings: Homo sapiens
row,Variant,abundance fitness
1,V35P,-0.105 ± 0.44
2,V35M,-0.278 ± 0.28
3,V35C,-0.417 ± 0.17
4,V35R,-0.009 ± 0.071
5,V35E,0.172 ± 0.11
6,V35N,-0.601 ± 0.41
7,V35D,0.091 ± 0.086
8,V35G,-0.204 ± 0.13
9,V35I,-0.609 ± 0.16
10,V35H,-0.152 ± 0.2
11,V35A,-0.537 ± 0.26
12,V35Q,0.033 ± 0.11
13,V35F,-0.179 ± 0.069
14,V35L,-0.462 ± 0.13
15,K16Y,-0.088 ± 0.3
16,K16M,-0.282 ± 0.15
17,K16S,-0.33 ± 0.17
18,K16R,-0.088 ± 0.072
19,K16Q,-0.043 ± 0.16
20,K16L,-0.064 ± 0.087
21,K16A,0.004 ± 0.16
22,K16T,0.021 ± 0.32
23,K16D,-0.102 ± 0.14
24,K16C,-0.543 ± 0.4

row,Variant,abundance fitness
1,K16W,-0.696 ± 0.17
2,K16E,-0.382 ± 0.15
3,K16F,-0.569 ± 0.37
4,Q12W,-0.146 ± 0.15
5,Q12E,-0.044 ± 0.13
6,Q12M,-0.409 ± 0.19
7,Q12P,-0.694 ± 0.21
8,Q12T,-0.283 ± 0.11
9,Q12L,-0.201 ± 0.07
10,Q12K,-0.276 ± 0.11
11,Q12A,-0.1 ± 0.085
12,Q12V,-0.265 ± 0.085
13,Q12I,-0.594 ± 0.48
14,Q12G,-0.636 ± 0.075
15,Q12R,-0.124 ± 0.064
16,Q12Y,-0.176 ± 0.17
17,Q12S,-0.143 ± 0.1
18,Q12D,-0.23 ± 0.21
19,Q12F,-0.654 ± 0.27
20,Q12C,-0.438 ± 0.16
21,I15F,-0.249 ± 0.22
22,I15M,-0.426 ± 0.2
23,I15E,0.058 ± 0.14
24,I15L,-0.252 ± 0.059

row,Variant,abundance fitness
1,I15P,-0.501 ± 0.15
2,I15Q,-0.052 ± 0.24
3,I15W,-0.751 ± 0.29
4,I15G,-0.778 ± 0.18
5,I15R,-0.421 ± 0.082
6,I15H,-0.875 ± 0.36
7,I15S,-0.17 ± 0.036
8,I15K,-0.336 ± 0.15
9,D23N,-0.687 ± 0.48
10,D23I,-0.704 ± 0.46
11,D23K,-0.764 ± 0.24
12,D23S,-0.743 ± 0.17
13,D23E,-0.023 ± 0.049
14,D23F,-0.998 ± 0.49
15,D23P,-1.04 ± 0.42
16,D23R,-0.187 ± 0.075
17,D23V,-0.937 ± 0.17
18,D23M,-0.802 ± 0.26
19,D23Y,-0.778 ± 0.38
20,D23Q,0.039 ± 0.13
21,D23G,-0.185 ± 0.06
22,T30S,0.01 ± 0.082
23,T30P,-0.115 ± 0.078
24,T30M,-0.077 ± 0.094

row,Variant,abundance fitness
1,T30W,-0.421 ± 0.12
2,T30D,-0.062 ± 0.21
3,T30K,0.336 ± 0.2
4,T30N,-0.348 ± 0.14
5,T30A,0.063 ± 0.086
6,T30I,-0.446 ± 0.14
7,T30H,-0.232 ± 0.15
8,T30R,-0.08 ± 0.078
9,T30G,-0.013 ± 0.051
10,T30F,-0.514 ± 0.14
11,T30L,-0.325 ± 0.034
12,T30Q,0.1 ± 0.15
13,T30V,-0.034 ± 0.23
14,T30Y,-0.459 ± 0.18
15,T30E,-0.177 ± 0.15
16,K11S,-0.541 ± 0.14
17,K11Q,-0.106 ± 0.14
18,K11M,-0.386 ± 0.15
19,K11A,-0.298 ± 0.14
20,K11T,-0.39 ± 0.16
21,K11P,-0.888 ± 0.29
22,K11L,-0.944 ± 0.17
23,K11R,-0.087 ± 0.055
24,K11V,-0.856 ± 0.25

row,Variant,abundance fitness
1,K11W,-0.753 ± 0.22
2,K11G,-0.926 ± 0.17
3,Y32K,-0.559 ± 0.3
4,Y32Q,-0.102 ± 0.17
5,Y32E,-0.335 ± 0.25
6,Y32H,-0.099 ± 0.1
7,Y32A,-0.412 ± 0.1
8,Y32L,0.017 ± 0.12
9,Y32T,-0.526 ± 0.19
10,Y32R,-0.44 ± 0.14
11,Y32G,-0.225 ± 0.054
12,Y32P,-0.685 ± 0.21
13,Y32S,0.108 ± 0.053
14,Y32W,-0.276 ± 0.14
15,Y32D,-0.352 ± 0.18
16,Y32V,-0.557 ± 0.15
17,Y32M,-0.647 ± 0.19
18,G18R,-0.532 ± 0.12
19,G18P,-0.964 ± 0.28
20,G18H,-0.749 ± 0.23
21,G18S,-0.906 ± 0.21
22,G18A,-0.542 ± 0.2
23,G18V,-0.851 ± 0.19
24,G18K,-0.546 ± 0.22

row,Variant,abundance fitness
1,G18N,-0.029 ± 0.13
2,G18L,-0.935 ± 0.31
3,G18Q,-0.785 ± 0.32
4,G18M,-0.778 ± 0.18
5,G18W,-1.06 ± 0.43
6,G18E,-0.893 ± 0.44
7,N34Q,-0.172 ± 0.14
8,N34H,-0.094 ± 0.091
9,N34I,-0.235 ± 0.16
10,N34G,0.074 ± 0.066
11,N34F,-0.569 ± 0.2
12,N34T,-0.098 ± 0.17
13,N34W,-0.84 ± 0.23
14,N34Y,-0.295 ± 0.044
15,N34R,-0.051 ± 0.072
16,N34A,-0.036 ± 0.073
17,N34M,-0.22 ± 0.13
18,N34S,0.109 ± 0.066
19,N34K,0.081 ± 0.13
20,N34L,-0.468 ± 0.14
21,N34C,0.307 ± 0.11
22,N34E,0.136 ± 0.12
23,N34V,-0.21 ± 0.078
24,N34D,-0.085 ± 0.26

row,Variant,abundance fitness
1,R14T,-0.939 ± 0.25
2,R14Q,-0.861 ± 0.28
3,R14W,-0.944 ± 0.39
4,R14C,-0.681 ± 0.23
5,R14M,-0.954 ± 0.35
6,R14G,-0.871 ± 0.25
7,R14A,-0.823 ± 0.2
8,R14E,-0.859 ± 0.23
9,R14V,-0.751 ± 0.22
10,R14L,-0.783 ± 0.08
11,R14S,-0.813 ± 0.21
12,R14Y,-0.764 ± 0.27
13,R14F,-0.829 ± 0.37
14,T20G,-0.556 ± 0.076
15,T20R,-0.908 ± 0.17
16,T20S,-0.079 ± 0.076
17,T20L,-0.828 ± 0.26
18,T20W,-0.862 ± 0.26
19,T20A,-0.556 ± 0.16
20,T20P,-0.627 ± 0.29
21,T20K,-0.738 ± 0.28
22,T20V,-1.02 ± 0.35
23,L26D,-0.016 ± 0.15
